Test results from patent US20090031441A1 (NATIONAL UNIVERSITY CORPORATION NAGOYA UNIVERSITY, published 2009).

T1: RGL3 (Arabidopsis DELLA protein), yeast two-hybrid prey in pGADT7 AD vector (Arabidopsis, UniProt Q9LF53 1-523)
T1 construct: also called AtDELLA
T1 sequence (looked up): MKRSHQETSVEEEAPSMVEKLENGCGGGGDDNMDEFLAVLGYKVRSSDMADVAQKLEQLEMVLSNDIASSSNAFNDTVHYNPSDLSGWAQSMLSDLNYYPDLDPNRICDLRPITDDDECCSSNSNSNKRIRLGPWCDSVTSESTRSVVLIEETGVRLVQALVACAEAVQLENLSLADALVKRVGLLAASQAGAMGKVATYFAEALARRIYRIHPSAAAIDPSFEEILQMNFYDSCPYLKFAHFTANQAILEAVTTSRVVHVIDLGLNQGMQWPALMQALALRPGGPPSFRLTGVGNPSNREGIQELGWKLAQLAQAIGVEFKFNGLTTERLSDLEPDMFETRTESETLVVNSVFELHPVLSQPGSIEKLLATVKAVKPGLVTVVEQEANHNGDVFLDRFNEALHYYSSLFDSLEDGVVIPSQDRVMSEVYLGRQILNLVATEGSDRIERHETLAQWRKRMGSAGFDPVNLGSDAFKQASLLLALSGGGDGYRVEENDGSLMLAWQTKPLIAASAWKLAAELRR

T2: RGA (Arabidopsis DELLA protein), yeast two-hybrid prey in pGADT7 AD vector (Arabidopsis, UniProt Q9SLH3 1-587)
T2 construct: also called AtDELLA
T2 sequence (looked up): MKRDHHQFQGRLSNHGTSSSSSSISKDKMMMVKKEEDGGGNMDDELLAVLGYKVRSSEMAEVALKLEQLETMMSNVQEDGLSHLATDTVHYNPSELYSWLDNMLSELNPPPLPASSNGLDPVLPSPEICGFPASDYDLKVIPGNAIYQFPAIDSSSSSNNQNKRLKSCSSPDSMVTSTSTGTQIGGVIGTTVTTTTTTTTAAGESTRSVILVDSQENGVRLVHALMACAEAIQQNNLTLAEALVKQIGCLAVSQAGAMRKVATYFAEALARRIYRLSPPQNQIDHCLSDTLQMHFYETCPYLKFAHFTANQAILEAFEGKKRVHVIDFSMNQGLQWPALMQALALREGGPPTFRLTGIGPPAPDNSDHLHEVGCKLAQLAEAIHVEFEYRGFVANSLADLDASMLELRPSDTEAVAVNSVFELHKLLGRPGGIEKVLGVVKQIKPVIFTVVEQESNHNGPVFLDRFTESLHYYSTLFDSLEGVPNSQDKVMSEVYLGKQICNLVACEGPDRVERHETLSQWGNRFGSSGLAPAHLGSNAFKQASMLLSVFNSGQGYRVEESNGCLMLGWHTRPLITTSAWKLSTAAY


What was measured:
[1] = molecular target: T1, RGL3 (Arabidopsis DELLA protein), yeast …; test: yeast two-hybrid, AtGID1 bait and AtDELLA prey, 10^-5 M GA4 in medium; colony growth (Assay A) and beta-galactosidase activity (Assay B)
Method: (§1) Panel A) depicts AtGID1-AtDELLA interaction in the presence of GA in two types of yeast hybrid (Y2H) assays. Each AtGID1 was used as a bait while AtDELLA was a prey. GA₄ (10⁻⁵ M) was added to the medium. The bars indicates β-galactosidase activity when o-nitrophenol-β-D-galactopyranoside was used as a substrate (Assay B). The growth of each transformant in the defined medium for 2 days (Assay A) is shown beneath of each bar graph. The experiment was carried out in quadruplicate. The SD value shown in the figure was determined from three measurements. Panel B) depicts the dose response in AtGID1-RGA interaction in Assay B of Y2H. GA₄ (10⁻⁵ to 10⁻⁹ M) was added to the medium. The experiment was conducted in duplicates. The SD value shown in the figure was determined from three measurements. Panel C) depicts the results of an evaluation of the in vitro GA-binding potency of AtGID1 using AtDELLA. Left panel, 15 minutes after mixing AtGID1c (C), tritiated GA, with an excess amount of non-labeled GA (+) or without non-labeled GA (−). GAI (G) or RGA (R) was added, and then the GA-binding activity in each reaction mixture was measured according to the standard method. Recombinant protein originating from the vector (v) was used as a negative control. The experiment was carried out in duplicates. The SD value was determined from three measurements. Right panel, a profile of Western blotting for recombinant AtDELLA using an antibody to His tag. G, GAI; R, RGA; v, vector; M, molecular weight marker.
(§2) Arabidopsis has five DELLA proteins (RGA, GAI, RGL1, RGL2, and RGL3; collectively designated AtDELLA; Fleet, C. M., and Sun, T.-P. (2005) Curr. Opin. Plant Biol., 8, 77-85; Dill, A., and Sun, T. (2001) Genetics, 159, 777-785); therefore, there are 15 possible combinations of GID1/DELLA proteins. To verify the positive interactions between AtGID1-AtDELLA, two experiments were conducted using the yeast two hybrid (Y2H) system. […] In the second experiment (Assay B), β-galactosidase activity was measured, as reporter gene product of AtGID1-AtDELLA interactions. […]

[2] = molecular target: T2, RGA (Arabidopsis DELLA protein), yeast …; test: as above
Method: as §1, §2

binding result [1]	binding result [2]	Binder
binds		AtGID1b (At3g63010), yeast two-hybrid bait in pGBKT7 DNA-BD vector (receptor, not shown: small tags and cut ends, Bait fusion for the Y2H assays; also called Arabidopsis GID1) MAGGNEVNLNECKRIVPLNTWVLISNFKLAYKVLRRPDGSFNRDLAEFLDRKVPANSFPLDGVFSFDHVDSTTNLLTRIYQPASLLHQTRHGTLELTKPLSTTEIVPVLIFFHGGSFTHSSANSAIYDTFCRRLVTICGVVVVSVDYRRSPEHRYPCAYDDGWNALNWVKSRVWLQSGKDSNVYVYLAGDSSGGNIAHNVAVRATNEGVKVLGNILLHPMFGGQERTQSEKTLDGKYFVTIQDRDWYWRAYLPEGEDRDHPACNPFGPRGQSLKGVNFPKSLVVVAGLDLVQDWQLAYVDGLKKTGLEVNLLYLKQATIGFYFLPNNDHFHCLMEELNKFVHSIEDSQSKSSPVLLTP
	binds	AtGID1a (At3g05120), yeast two-hybrid bait in pGBKT7 DNA-BD vector (receptor, not shown: small tags and cut ends, Bait fusion for the Y2H assays (BD Matchmaker Two-hybrid System 3); also called Arabidopsis GID1) MAASDEVNLIESRTVVPLNTWVLISNFKVAYNILRRPDGTFNRHLAEYLDRKVTANANPVDGVFSFDVLIDRRINLLSRVYRPAYADQEQPPSILDLEKPVDGDIVPVILFFHGGSFAHSSANSAIYDTLCRRLVGLCKCVVVSVNYRRAPENPYPCAYDDGWIALNWVNSRSWLKSKKDSKVHIFLAGDSSGGNIAHNVALRAGESGIDVLGNILLNPMFGGNERTESEKSLDGKYFVTVRDRDWYWKAFLPEGEDREHPACNPFSPRGKSLEGVSFPKSLVVVAGLDLIRDWQLAYAEGLKKAGQEVKLMHLEKATVGFYLLPNNNHFHNVMDEISAFVNAEC
